What was measured:
[1] = target: GST-Xchk1(347-374), wildtype peptide fragment (UniProt Q6DE87)
GST-Xchk1(347-374) S365A = GST-Xchk1(347-374) S365A (UniProt Q6DE87)
GST-Xchk1(306-352) T314A = GST-Xchk1(306-352) T314A (UniProt Q6DE87)
[2] = target: GST-Xchk1(347-374) S365A+S356A (UniProt Q6DE87)
GST-Xchk1(306-352) S344A = GST-Xchk1(306-352) S344A (UniProt Q6DE87)
GST-Xchk1(347-374) S356A = GST-Xchk1(347-374) S356A (UniProt Q6DE87)
[3] = target: GST-Xchk1(306-352), wild type peptide fragment (UniProt Q6DE87)
Sequence of GST-Xchk1(306-352), wild type peptide fragment (Q6DE87 306-352): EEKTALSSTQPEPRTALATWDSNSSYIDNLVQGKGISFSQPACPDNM

[4] = target: GST-Xchk1(306-352) S344A+T314A (UniProt Q6DE87)
Sequence of GST-Xchk1(306-352) S344A+T314A (Q6DE87 whole entry T314A/S344A, looked up, tested part not stated): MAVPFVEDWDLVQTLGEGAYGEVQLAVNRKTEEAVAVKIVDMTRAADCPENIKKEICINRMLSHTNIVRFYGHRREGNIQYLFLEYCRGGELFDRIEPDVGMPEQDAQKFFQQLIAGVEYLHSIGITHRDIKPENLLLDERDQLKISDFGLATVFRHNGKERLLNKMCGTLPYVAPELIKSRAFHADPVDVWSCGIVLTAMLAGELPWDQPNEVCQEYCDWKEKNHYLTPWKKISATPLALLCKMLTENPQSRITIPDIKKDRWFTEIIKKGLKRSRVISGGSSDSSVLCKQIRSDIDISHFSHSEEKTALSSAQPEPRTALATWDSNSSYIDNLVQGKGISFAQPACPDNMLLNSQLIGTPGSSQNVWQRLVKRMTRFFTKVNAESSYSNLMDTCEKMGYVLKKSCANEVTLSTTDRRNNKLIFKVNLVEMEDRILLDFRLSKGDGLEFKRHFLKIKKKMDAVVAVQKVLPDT

[5] = tested on: PHAS-I (model substrate protein)
[6] = target: GST-Xchk1-N135A (kinase inactive Xchk1 mutant, bacterially expressed) (UniProt Q6DE87)
Sequence of GST-Xchk1-N135A (kinase inactive Xchk1 mutant, bacterially expressed) (Q6DE87 whole entry N135A, looked up): as the sequence (Q6DE87 whole entry T314A/S344A, looked up, tested part not stated) above, with N135A, A314T, A344S counted along it

[7] = target: GST-Xchk1-N135A-4AQ (bacterially expressed) (UniProt Q6DE87)
Sequence of GST-Xchk1-N135A-4AQ (bacterially expressed) (Q6DE87 whole entry N135A, looked up): as the sequence (Q6DE87 whole entry T314A/S344A, looked up, tested part not stated) above, with N135A, A314T, A344S counted along it

Sequence of Wildtype human Flag-tagged ATR isolated from 293T cells (chain, as listed by the source): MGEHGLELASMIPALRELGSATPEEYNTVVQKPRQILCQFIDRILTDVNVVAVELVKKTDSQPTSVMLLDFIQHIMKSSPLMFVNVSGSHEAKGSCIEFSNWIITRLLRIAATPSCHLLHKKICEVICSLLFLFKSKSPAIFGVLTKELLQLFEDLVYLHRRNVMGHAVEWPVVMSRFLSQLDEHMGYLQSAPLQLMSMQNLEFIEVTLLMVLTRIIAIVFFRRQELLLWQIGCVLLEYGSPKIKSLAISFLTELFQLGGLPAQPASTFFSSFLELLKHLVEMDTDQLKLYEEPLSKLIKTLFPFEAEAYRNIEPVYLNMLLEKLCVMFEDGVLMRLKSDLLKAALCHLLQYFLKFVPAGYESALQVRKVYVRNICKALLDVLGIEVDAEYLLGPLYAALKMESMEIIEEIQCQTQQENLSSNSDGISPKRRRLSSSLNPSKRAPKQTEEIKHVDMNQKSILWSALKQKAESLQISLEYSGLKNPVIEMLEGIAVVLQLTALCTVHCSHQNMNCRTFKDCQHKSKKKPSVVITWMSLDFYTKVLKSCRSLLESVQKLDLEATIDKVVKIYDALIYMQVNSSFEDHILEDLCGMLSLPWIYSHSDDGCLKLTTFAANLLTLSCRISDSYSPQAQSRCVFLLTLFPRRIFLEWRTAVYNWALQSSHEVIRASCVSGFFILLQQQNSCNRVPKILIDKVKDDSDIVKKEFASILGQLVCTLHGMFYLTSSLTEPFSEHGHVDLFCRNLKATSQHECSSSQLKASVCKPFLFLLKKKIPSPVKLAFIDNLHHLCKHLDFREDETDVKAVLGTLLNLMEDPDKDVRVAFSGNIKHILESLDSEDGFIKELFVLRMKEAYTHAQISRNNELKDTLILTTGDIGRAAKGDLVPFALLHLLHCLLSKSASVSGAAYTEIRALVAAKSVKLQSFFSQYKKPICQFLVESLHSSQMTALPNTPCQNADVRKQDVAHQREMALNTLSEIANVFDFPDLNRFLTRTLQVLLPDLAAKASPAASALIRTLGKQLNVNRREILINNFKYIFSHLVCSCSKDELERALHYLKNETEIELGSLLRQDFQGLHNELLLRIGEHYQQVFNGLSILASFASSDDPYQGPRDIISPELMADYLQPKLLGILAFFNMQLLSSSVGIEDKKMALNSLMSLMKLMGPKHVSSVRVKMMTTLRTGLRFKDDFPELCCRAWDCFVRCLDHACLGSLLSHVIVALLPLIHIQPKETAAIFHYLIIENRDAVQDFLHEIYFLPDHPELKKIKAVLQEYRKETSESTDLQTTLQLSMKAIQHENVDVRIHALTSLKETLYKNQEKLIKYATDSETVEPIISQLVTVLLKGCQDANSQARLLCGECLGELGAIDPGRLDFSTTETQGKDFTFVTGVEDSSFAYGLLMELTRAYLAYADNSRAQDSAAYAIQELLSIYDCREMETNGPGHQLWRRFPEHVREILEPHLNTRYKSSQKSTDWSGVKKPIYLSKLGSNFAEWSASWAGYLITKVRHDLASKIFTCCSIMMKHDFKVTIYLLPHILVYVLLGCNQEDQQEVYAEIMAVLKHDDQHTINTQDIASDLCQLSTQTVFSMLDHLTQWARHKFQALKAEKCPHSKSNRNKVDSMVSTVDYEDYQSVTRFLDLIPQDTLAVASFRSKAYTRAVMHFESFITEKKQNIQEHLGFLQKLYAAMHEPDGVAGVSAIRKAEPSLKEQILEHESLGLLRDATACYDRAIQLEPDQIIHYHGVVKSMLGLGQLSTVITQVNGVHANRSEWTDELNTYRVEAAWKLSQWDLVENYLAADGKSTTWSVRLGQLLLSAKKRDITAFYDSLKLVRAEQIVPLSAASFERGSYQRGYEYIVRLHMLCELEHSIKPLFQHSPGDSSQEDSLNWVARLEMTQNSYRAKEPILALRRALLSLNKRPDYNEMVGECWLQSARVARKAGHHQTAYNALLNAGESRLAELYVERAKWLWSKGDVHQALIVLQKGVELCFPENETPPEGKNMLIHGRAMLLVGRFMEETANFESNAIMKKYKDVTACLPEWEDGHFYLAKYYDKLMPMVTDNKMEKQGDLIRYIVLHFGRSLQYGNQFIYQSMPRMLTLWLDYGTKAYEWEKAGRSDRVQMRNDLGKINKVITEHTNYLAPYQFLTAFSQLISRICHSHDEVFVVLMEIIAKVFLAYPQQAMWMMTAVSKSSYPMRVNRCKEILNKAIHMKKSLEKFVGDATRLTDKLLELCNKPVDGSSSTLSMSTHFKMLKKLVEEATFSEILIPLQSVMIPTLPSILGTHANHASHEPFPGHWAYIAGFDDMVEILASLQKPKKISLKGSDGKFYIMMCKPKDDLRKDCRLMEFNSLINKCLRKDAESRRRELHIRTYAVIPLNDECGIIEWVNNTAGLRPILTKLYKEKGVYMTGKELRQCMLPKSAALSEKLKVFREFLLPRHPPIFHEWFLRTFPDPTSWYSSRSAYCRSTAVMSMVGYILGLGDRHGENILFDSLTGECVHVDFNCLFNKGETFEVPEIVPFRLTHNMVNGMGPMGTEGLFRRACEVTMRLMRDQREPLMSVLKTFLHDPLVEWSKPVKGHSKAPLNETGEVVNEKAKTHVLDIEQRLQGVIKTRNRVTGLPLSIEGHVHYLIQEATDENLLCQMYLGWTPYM
Sequence of GST-Xchk1(347-374) S365A+S356A (Q6DE87 whole entry S356A/S365A, looked up, tested part not stated): as the sequence (Q6DE87 whole entry T314A/S344A, looked up, tested part not stated) above, with A314T, A344S, S356A, S365A counted along it
Sequence of GST-Xchk1(347-374), wildtype peptide fragment (Q6DE87 347-374): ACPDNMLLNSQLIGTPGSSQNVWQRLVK
Sequence of GST-Xchk1(347-374) S365A (Q6DE87 whole entry S365A, looked up, tested part not stated): as the sequence (Q6DE87 whole entry T314A/S344A, looked up, tested part not stated) above, with A314T, A344S, S365A counted along it
Sequence of GST-Xchk1(306-352) S344A (Q6DE87 whole entry S344A, looked up, tested part not stated): as the sequence (Q6DE87 whole entry T314A/S344A, looked up, tested part not stated) above, with A314T counted along it
Sequence of GST-Xchk1(347-374) S356A (Q6DE87 whole entry S356A, looked up, the tested form may be a part): as the sequence (Q6DE87 whole entry T314A/S344A, looked up, tested part not stated) above, with A314T, A344S, S356A counted along it
Sequence of GST-Xchk1(306-352) T314A (Q6DE87 whole entry T314A, looked up, tested part not stated): as the sequence (Q6DE87 whole entry T314A/S344A, looked up, tested part not stated) above, with A344S counted along it

Substance | in vitro phosphorylation of Xchk1 peptides [1] | in vitro phosphorylation of Xchk1 peptides (GST-Xchk1(347-374) S365A) | in vitro phosphorylation of Xchk1 peptides (GST-Xchk1(306-352) T314A) | in vitro phosphorylation of Xchk1 peptides [2] | in vitro phosphorylation of Xchk1 peptides (GST-Xchk1(306-352) S344A) | in vitro phosphorylation of Xchk1 peptides (GST-Xchk1(347-374) S356A) | in vitro phosphorylation of Xchk1 peptides [3] | in vitro phosphorylation of Xchk1 peptides [4] | phosphorylation of PHAS-I (in vitro kinase assay, autoradiography) [5] | in vitro phosphorylation (32P-ATP, autoradiography) [6] | in vitro phosphorylation (32P-ATP, autoradiography) [7]
Wildtype human Flag-tagged ATR isolated from 293T cells | Wildtype human ATR phosphorylated the wildtype XChk1 peptides Xchk1 (306-352) and Xchk1(347-374) | human ATR phosphorylated each of the single point mutant Chk1 substrates (S365A, S356A, S344A and T314A); the level of phosphorylation of the single mutant forms of Xchk1 by human ATR is also reduced | human ATR phosphorylated each of the single point mutant Chk1 substrates (S365A, S356A, S344A and T314A); the level of phosphorylation of the single mutant forms of Xchk1 by human ATR is also reduced | human ATR does not phosphorylate the double mutant XChk1 substrates (S365A+S356A or S344A+T314A-as shown in lanes 4 and 12) | human ATR phosphorylated each of the single point mutant Chk1 substrates (S365A, S356A, S344A and T314A); the level of phosphorylation of the single mutant forms of Xchk1 by human ATR is also reduced | human ATR phosphorylated each of the single point mutant Chk1 substrates (S365A, S356A, S344A and T314A); the level of phosphorylation of the single mutant forms of Xchk1 by human ATR is also reduced | Wildtype human ATR phosphorylated the wildtype XChk1 peptides Xchk1 (306-352) and Xchk1(347-374) | human ATR does not phosphorylate the double mutant XChk1 substrates (S365A+S356A or S344A+T314A-as shown in lanes 4 and 12) |  |  | 
Xenopus laevis ATR (Xatr), endogenous protein in Xenopus egg extracts | Xatr phosphorylated both of the wildtype peptide fragments (lanes 1 and 5-top panel) | Xatr phosphorylated Xchk1 when a single SQ or TQ site is mutated although the level of phosphorylation is significantly reduced in comparison to that observed with wildtype peptide | Xatr phosphorylated Xchk1 when a single SQ or TQ site is mutated although the level of phosphorylation is significantly reduced in comparison to that observed with wildtype peptide | mutation of both sites within each peptide (S365A+S356A or S344A+T314A) abolished phosphorylation by Xatr (lanes 4 and 8) | Xatr phosphorylated Xchk1 when a single SQ or TQ site is mutated although the level of phosphorylation is significantly reduced in comparison to that observed with wildtype peptide | Xatr phosphorylated Xchk1 when a single SQ or TQ site is mutated although the level of phosphorylation is significantly reduced in comparison to that observed with wildtype peptide | Xatr phosphorylated both of the wildtype peptide fragments (lanes 1 and 5-top panel) | mutation of both sites within each peptide (S365A+S356A or S344A+T314A) abolished phosphorylation by Xatr (lanes 4 and 8) | these immunoprecipitates phosphorylated a model substrate protein (PHAS-I) in vitro | Xatr phosphorylates Xchk1 in vitro (compare lane 5 to lane 6) | the resulting mutant (GST-Xchk1-N135A-4AQ) was not phosphorylated by Xatr (lane 4)

— patent publication US20030108916
